In a protein production outcome set (Wang et al. 2014):

assay: label from the status in PepcDB records
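Further: failed if final PepcDB status was selected cloned or expressed and not failed if soluble or beyond.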

Question: With “AIDHRIQYLAYREIKAAVETNKAKAGSVVVLDAHTGELLALANYPSFNPNNRSGVTPEMMRNRGVIDLFEPGSTMKPLSISLALEHGKANLNTVLDTHSYMIGPATIRDVSPQASLGILGIIQKSSNVGTSKLALLNSPEEFWKHYDALGFGRAPETGFPGEASGRLRDWHKWRPIEQATMSFGYGVSVSLIQMARAYTIFANDGVMLPVALYKTANPMPGKRVLSEKTAHEMRDLLIANSQPGGGAVGGRIIGYSIGGKSGTARKLEGRAYVANKHRALFMGFAPGHSPKVIVAVMIDEPSAGKYYGGAVSAPVFSQVAGGALRVLNIAPD” as the sequence, how does the protein production read?
Answer: failed

Question: Which protein production does the source give for “AIGMALVGTEGQWLQVNKSLSHFLGYSQDELRTMTFQQLTWPEDLNNDLEQLNMLVRGDINSYSMEKRYYTRNGDVVWALLAVSLVRHKDNKPLYFIAQIEDINDLKQSEQENQRLMERITQANDALFQEKERLHITLDSIG” here?
Answer: failed

Question: For “AIPQHEHPMIIAGFGRFGQIIARNARLNHIGFTAIDNNLQQIDFVRRYGGTLYYGDITQPDILRAAGIEKAKVFILAIDDVEDSMNVARHIRLNYPQITLMVRARDRYQVHLLRDLGVEHIWRETYLSSLGMAYRALCELGIP”, which protein production is on record?
Answer: failed

Question: Which protein production does the source give for “AISPNRASHTLADIRNQLSTRILILDGAMGTMIQGYKLEEADYRGERFKDWHTDVKGNNDLLVLTQPHIIKQIHTDYLLAGADIIETNTFNATTIAMADYDMQSLSAEINREGARLAREACDAIEQATGKPRYVAGVLGPTNRTCSISPDVNDPGFRNIHFDELVTAYCESTRALIEGGADIIMVETIFDTLNAKAALFAIETVFDELFGANSPARLPVMISGTITDASGRTLTGQTTEAFYNSLRHIKPLSIGLNCALGPKELRPYVEELSRIAECYVSAHPNAGLPNEFGGYDETPEDMAKVIQEWAREGMLNIIGGCCGSTPEHIKVIREAVEQFAPRVLPEIPVACRLAGLEPLTIDAQTLFVNVGERTNVTGSAKF” here?
Answer: failed

Question: With “AIVHEMLKDTHPQYAYRSGMSAQEFTQWQDGVRAAMVEIMKFPEIKRQPSPVCVKTEKKEGYILEKWEFYPFPKSVSTFLVLKPEHLKGAVPGVLCIPGSGRTKEGLVGEPGICDKLTEDYNNPKVSMALNMVKEGYVAVAVDNAAAGEASDLECYDKGWNYDYDVVSRFLLELGWSWLGYTSYLDMQVLNWMKAQSYIRKDRIVISGFSLGTEPMMVLGVLDKDIYAFVYNDFLCQTQERAVVMTKPDKENRRPFPNSIRHLIPGYWRYFNFPDVVASLAPRPIIFTEGGLDRDFRLVQSAYAASGKPENAEFHHYPKFADKAVRKDVEHLDEGLDSKTYFEAVNVDPPSHYFKNELVIPWLRKVLK” as the sequence, how does the protein production read?
Answer: not failed

Question: Which protein production does the source give for “AIVNASNNAILTTSITGEILSANPAAVQMFQSLEQELKGISVSRLFAEKDEMHFFFDFQSNVYSLQRKALGISVECLSLRSDGTEFPAQAELQWADRAKQPLIVITFINLS” here?
Answer: failed

Question: For “AIYVDLPNRQLKVKVADRRVISTTDAERQAVTPPGLQEAINDLVKKYTLARAFVRPSGTEDIVRVYAEANSQESADRLAYEVSLLVFQLAGGIGERPQP”, which protein production is on record?
Answer: not failed

Question: Which protein production does the source give for “AKGKNLIIVQLESFQRNLTNIKIDGQSITPTLDSLQNETMYSNKFFQTVSKSNTADAEWSVYTSTFPSGYYTNTQTYGDRVIPSMPRLLGKNDYTTSTFHTNDASFYNRDEFYPAVGFDKFYDRKFFGDEDVIGFSPSDEVLYNKAFPILEKQYKNNQKFYAQLISVSSHMPFNIPEEKQEINLPSDLKDTELGNYFEAVHYADKQLGAFIQKLKDSGIWEDSVVVFYGDHHIIKTDQLPEEQKKYVNRSTELKADPADDYRIPFFLHYPGMKNPGEIKNVGGEIDIMPTVMNLLGINTGNQIMFGTDILNSTNNYVPERYTMPEGSYFTDSYMYQP” here?
Answer: failed

Question: For “AKGKNVIVLHLESFQQFLIDYKLNIDGKQYEVTPFLNSLYHSKETFAFSNFFHQVKAGKTSDAETLMETSLFGLNQGSFFVQYGGDNTQQAAPHILKDTNNYSSAVFHGNIGTFWNRNNAYKQLGYQHFFDQSYMSKMTKDNSFQYGLNDKVMFADSIKYLEHMQQPFYTKFITVSNHYPYQSLDGDDTGFPLAKTEDKTINGYFATANYLDAAIKDFFDYLKASGLYKNSIIVMYGDHYGIANSRNTDLAPLLGKDSQTWTEYNNAMLQRVPYMIHVPGTDKGFISNTYGGEVDALPTLLHLLGIDNKNYIELGQDLLSPNNKQLVAFRSEGNYITPNYTSYSGRVYDTKTGV”, which protein production is on record?
Answer: failed

Question: With “AKGLRTVKTCVGSDWCRFGTQDSTGLGIRIERFMWGSWTPAKLKMAVSGCPRNCAEATCKDIGVICVDSGFEIHFAGAAGLDIKGTEVLGLVRTEDEALEYIVALTQMYREQARYLERIYKWAKRIGLEEIRRQIMGDAEK” as the sequence, how does the protein production read?
Answer: failed

Question: For “AKLMNRFSTTKLNPLIGSAGVSAVPMAARVSNKVGLEANAQNFLLMHAMGPNVAGVIGSAVAAGVMIKYVMG”, which protein production is on record?
Answer: failed

Question: With “ALQAGRLGSTVFVANLDYKVGWKKLKEVFSMAGVVVRADILEDKDGKSRGIGTVTFEQSIEAVQAISMFNGQLLFDRPMHVKMDERALPKGDFFPPERPQQ” as the sequence, how does the protein production read?
Answer: not failed

Question: Which protein production does the source give for “ALTGHTVLVGWDGEASERIVELLGQDTSTSRAGLVICDSIITENPLPGRASFIKGDSLDSPAVLSRAGVVGAQRILVHTQSDSLTLAIVLTLKSLGPTGHVVAHFNNSERAALARTYAPELECTSNMAIEMLVRSAQDPGSSSVIT” here?
Answer: failed

Question: With “ANSQLRKQRDENAELAERLASLLKMLPAGVVELSPDGRVIAENLAAESLISGCYIGEYWEAVLERLLTQEADGSFALEAGGESRRLTLQYQDLPASGGRIVLIHDV” as the sequence, how does the protein production read?
Answer: failed

Question: For “ANVKLLLPYILKWEGGFVHDPADAGGATNKGVTIATWKRVGYDKDGDGDIDVEDLKLLTDDDVLNRVLKPFYWDRWKADLIESQKVANILVDWVWGSGKYGIVIPQRILGVQADGIVGNKTLQAVNSADPDELFESIFDARREFLEDITARSIKKYEDSIGRKATERELLRHTNKRFLRGWLNRLEDI”, which protein production is on record?
Answer: not failed

Question: With “AQGVGVEAILLLRRECQASHEDALHLGLAEHAPVIELQTLRKLDGQAVSLIFHRYSAVYHELLADYQGGSVRQYLAECGLPLSRAQSLIGARLPSREEAGLLLMPRHMPALTVLTVSCDGAGQPVELSRSVSRSDRFQYQVATAIPTR” as the sequence, how does the protein production read?
Answer: not failed

Question: For “AQSILEKADEIRFPQDSFQVNVAIRTAAPDHAEDLYRYQVLSKGNENSIVMITEPASERGQAILMKGRDLWVFMPSVSQPIRLSLSQRLTGQVANGDIARANFTGDYHPQLLRNESIDDEDYYVLELTGIDRSVTYQKVLLWVNQSNFRPYKAEFYSVSGRLLKTSRYENFDNILGEMRPTRIIMEDALKSGEVSVLDYSDMKLRDLPDKIFTKDYLKR”, which protein production is on record?
Answer: not failed

Question: Which protein production does the source give for “AQTDPSQLKKEGSDAFNAKNYPVAYAKFSEYLKQTNNQDSAIAYYCGMAADEVKKYAEAVTFFDIAIQKKFNIGNAYARKALALDAMKKTDEYVATLEEGLKVDPDNKTMIKNYGLHYLKAGIAAQKAGKVEEAEECFKKVIPLDHKTYKTNALYSLGVLCYNDGANILKKAAPLANSDADKYAAEKEKADGRFKEAIGYLEEATKVSPEDTKSKTMLSQVQAAMK” here?
Answer: not failed

Question: For “ARHPQRVVAAILVAPASPESFSENGHILPEHDDTPTIRNLLPKQTLGICGLVIASENDPWMPFNQAASLAKSFGLPTINLGLSGHINVDSGHGQWPLIDVLVGNFL”, which protein production is on record?
Answer: failed

Question: For “ARIARVVVHPDYRSDGLGQLSVKAALEWIAERRIPEMRKKKHFVETIAQMARYNPFFEKVGFRYVWETASG”, which protein production is on record?
Answer: failed

Question: For “ARLEPLLIGGLYPKNLEDRILIKLDQAPPYLLDGLVAVEDRDFYHHFGVSPKSIARAIWVNTSQGQMRQGGSTLTQQLVKNFYLTNERSLSRKLTEAMMAVLLEIHYSKQEILEAYLNEVFVGQDGQRAVHGFGLASQYFFSQPLSELKIHQVAMLVGLVKGPSFYNPRRNP”, which protein production is on record?
Answer: failed

Question: Which protein production does the source give for “ARLVQLSRHSIAFPSPEGALREPNGLLALGGDLSPARLLMAYQRGIFPWFSPGDPILWWSPDPRAVLWPESLHISRSMKRFHKRSPYRVTMNYAFGQVIEGCASDREEGTWITRGVVEAYHRLHELGHAHSIEVWREDELVGGMYGVAQGTLFCGESMFSRMENASKTALLVFCEEFIGHGGKLIDCQVLNDHTASLGACEIPRRDYLNYLNQMRLGRLPNNFWVPRCLFSPQE” here?
Answer: not failed

Question: Which protein production does the source give for “ARNAEAEGRLVRECRELLERHAFEELTVPDIAECLGVSVRTLQTALRAETGATPSELLRSIRLDRAREMLLEANPREQSVTAVAEQCGFTHQGRFSALYVKAFGELPSESLRR” here?
Answer: failed

Question: Which protein production does the source give for “ARNAVMVIDGIPVTKSSNTINDALEGVTFNLLKANPGTTTTLTVEKDKSNVEAAVNAFVKAYNDLEKTIGNLSRYDAANKQASVLTGDSTMRMIQNRMRAMLGGNQSAAGGINSLSELGISFQKDGTLALDNNKLSAVLNNPDKNIAAFFTTQGGDDTTSVEGFASRLSELIDGMTRSDGLISSRMDGINSTIKGIGKQREALEFRLESVEKRLRAQFTALDTMIASMNQ” here?
Answer: not failed

Question: Which protein production does the source give for “ARQVTPGQVMVASTVAKLATIIDGEEDSTQRMGFETILPLREGNGPTLFCFHPASGFAWQFSVLSRYLDPQWSIIGIQSPRPHGPMQTAANLDEVCEAHLATLLEQQPHGPYYLLGYSLGGTLAQGIAARLRARGEQVAFLGLLDTWPPETQNWQEKEANGLDPEVLAEINREREAFLAAQQGSTSTELFTTIEGNYADAVRLLTTAHSVPFDGKATLFVAERTLQEGMTPEQAWAPWIAELDIYRQDCAHVDIISPEYFKEIGPLINTQINN” here?
Answer: failed

Question: Which protein production does the source give for “ASISEVAAITGLTQDTLRWYEREGMIPTIARGSDRRRRYSERDVRLIELLVKLRTTGMPTSDMQRFAVLLAGGAETHERRLALLLAHRERILAQQARLDDALAALDTKVDHYR” here?
Answer: failed

Question: Which protein production does the source give for “ASRDLLKEFPQPKNLLNSVIGRALGISHAKDKLVYVHTNGPKKKKVTLHIKWPKSVEVEGYGSKKIDAERQAAAAACQLFKGWGLLGPRNELFDAAKYRVLADRFG” here?
Answer: not failed

Question: With “ATDVAARGLDISGVTHVYNYDIPQDPESYVHRIGRTGRAGKEGMAITFVQPREMGYLRIVEETTKKRMQPLQAPTWDEAFAGQLRVATEKIQEAITEENLADYKTFANELLEKYDATDIAAAMLKMLAKEPDKTPVHITEERPLPSRGGGGYKGK” as the sequence, how does the protein production read?
Answer: not failed

Question: For “ATITHQEKLLTVDTTAHPFLKALGGHEGTDIFPLFMDPYNGLMVMRASFAPGLTLPLHFHTGTVHMYTISGCWYYTEYPGQKQTAGCYLYEPGGSIHQFNTPRDNEGQTEVIFMLSGCNVNFTQDGTYLGLSDAGVIKNWVDRAIREQDNGLRYIAAAVPTYAA”, which protein production is on record?
Answer: not failed

Question: For “AVGSGSEGFIVRLPAALLFKEGGIEVENSDGFLFVKRMAEIVNRLPKDVHVEVRGHTDTLPLPAQAPQDKLELTAKRALSVSKLLVKEGIDPKRITTVGRGDQDPLTHARTPEAQESNRRVDIYLYPKE”, which protein production is on record?
Answer: not failed

Question: With “AVNEENIMIPKGVEVYEITGPYFFGIATKFEETMAQLGDRPNVRIIRMRKVPFIDSTGIHNLTTLCEMSQKEKITVILSGVNEKVYKVLEKSGFYELLGKENICPNFKIALDRAEEV” as the sequence, how does the protein production read?
Answer: failed

Question: With “AVPGEVRLQVKDLRSVGGSALNGVNMTLRAGQIYGIAGVGGNGQAELANALMGLPQATEGDIHLAPFGDLRNASAEQRRQLRIASIPADRYGAALAGSLSVAENFGIGNIHSGHYGSFWRLGYKRLKQDAQRAVESFDVQGVRSLDQKAALLSGGNAQKLVIAREFSRDPQLVLVHSPSRGLDVRATQAVHDRLRAARDAGAAVLLISEDLDEVLALADRIGVMNGGRIVAEFDHPADRQAIGKAMVSHD” as the sequence, how does the protein production read?
Answer: failed

Question: For “AWKGEVLANNEAGQVTSIIYNPGDVITIVAAGWASYGPTQKWGPQGDREHPDQGLICHDAFCGALVMKIGNSGTIPVNTGLFRWVAPNNVQGAITLIYNDVPGTYGNNSGSFSVNIGKDQS”, which protein production is on record?
Answer: not failed

Question: With “AYSELQMLSPSERQCVETVVNMGYSYECVLRAMKKKGENIEQILDYLFAH” as the sequence, how does the protein production read?
Answer: not failed
